Results on 3 molecules are retold here after publication PMC10658506.

One assay has as its target T1, human gp130-Fc, P40189.
T1 chain: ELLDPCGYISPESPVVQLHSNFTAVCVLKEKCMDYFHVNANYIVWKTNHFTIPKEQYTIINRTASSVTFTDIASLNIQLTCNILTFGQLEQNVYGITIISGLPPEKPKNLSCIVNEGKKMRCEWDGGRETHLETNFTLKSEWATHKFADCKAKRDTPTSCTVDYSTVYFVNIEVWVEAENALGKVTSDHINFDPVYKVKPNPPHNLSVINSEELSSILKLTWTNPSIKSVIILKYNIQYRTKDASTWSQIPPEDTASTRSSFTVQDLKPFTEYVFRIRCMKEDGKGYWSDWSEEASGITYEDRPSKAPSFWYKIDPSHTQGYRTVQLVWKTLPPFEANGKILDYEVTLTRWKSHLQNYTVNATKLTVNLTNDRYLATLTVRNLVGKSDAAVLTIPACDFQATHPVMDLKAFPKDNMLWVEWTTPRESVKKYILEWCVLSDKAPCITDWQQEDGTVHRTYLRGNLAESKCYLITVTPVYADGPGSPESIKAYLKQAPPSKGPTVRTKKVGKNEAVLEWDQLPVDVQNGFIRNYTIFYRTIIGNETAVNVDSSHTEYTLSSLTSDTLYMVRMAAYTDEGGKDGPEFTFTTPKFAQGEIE
Put plainly: flow cytometry on yeast-displayed IL-11. Conditions: chain shown with the change, 100 nM IL-11R added, read off a plot.

The target in assay [1] is T2, yeast-displayed IL-11 L57P (human).
T2 sequence (P20809 22-199 with L57P, looked up): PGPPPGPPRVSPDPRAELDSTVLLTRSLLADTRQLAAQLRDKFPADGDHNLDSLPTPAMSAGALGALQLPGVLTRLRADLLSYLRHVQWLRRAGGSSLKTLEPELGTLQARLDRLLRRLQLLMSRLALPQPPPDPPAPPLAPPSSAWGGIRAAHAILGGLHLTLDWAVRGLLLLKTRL
The assay is described as follows: flow cytometry on cells; yeast-displayed IL-11 variants incubated with varying concentrations of soluble IL-11R or mIL-11R overnight at room temperature, washed with BPBS; receptor detected with anti-his AF647, display with anti-c-myc; apparent Kd from the fraction bound of the expressing …. A general note: Flow cytometry measures light scatter and fluorescence of single cells or particles in a stream.

The target in assay [2] is yeast-displayed IL-11 GIPR (human). The assay is described as above.
For assay [3], the target named is yeast-displayed IL-11 GIPR S60T (human). Described as above.

B1: yeast-displayed wild-type human IL-11, P20809 D19G; T21I; L57P; G62R (protein)
chain: PGPPPGPPRVSPDPRAELGSIVLLTRSLLADTRQLAAQLRDKFPADGDHNLDSLPTPAMSARALGALQLPGVLTRLRADLLSYLRHVQWLRRAGGSSLKTLEPELGTLQARLDRLLRRLQLLMSRLALPQPPPDPPAPPLAPPSSAWGGIRAAHAILGGLHLTLDWAVRGLLLLKTRL
As for B1, the response (Normalized Fluorescence) worked out at 28000 in the assay with human gp130-Fc, P40189 (10 nM gp130-Fc); 35000 with human gp130-Fc, P40189 (100 nM gp130-Fc); 40000 with human gp130-Fc, P40189 (1000 nM gp130-Fc).

B2: soluble human IL-11 receptor extracellular domain, his-tagged (receptor)
chain: SPCPQAWGPPGVQYGQPGRSVKLCCPGVTAGDPVSWFRDGEPKLLQGPDSGLGHELVLAQADSTDEGTYICQTLDGALGGTVTLQLGYPPARPVVSCQAADYENFSCTWSPSQISGLPTRYLTSYRKKTVLGADSQRRSPSTGPWPCPQDPLGAARCVVHGAEFWSQYRINVTEVNPLGASTRLLDVSLQSILRPDPPQGLRVESVPGYPRRLRASWTYPASWPCQPHFLLKFRLQYRPAQHPAWSTVEPAGLEEVITDAVAGLPHAVRVSARDFLDAGTWSTWSPEAWGTPSTGTIPKEIPAWGQLHTQPEVEPQVDSPAPPRPSLQPHPRLLDHRDSVEQVAVLA
Consider B2, for which, in assay [1], the Kd is 0.71 nM and the fold improvement in IL-11R binding over WT IL-11 came to 10 fold. In addition, in assay [2], the Kd was found to be 0.12 nM and the fold improvement of apparent Kd over WT IL-11 stood at 70 fold.

B3: soluble mouse IL-11 receptor (receptor)
chain: SPCPQAWGPPGVQYGQPGRPVMLCCPGVSAGTPVSWFRDGDSRLLQGPDSGLGHRLVLAQVDSPDEGTYVCQTLDGVSGGMVTLKLGFPPARPEVSCQAVDYENFSCTWSPGQVSGLPTRYLTSYRKKTLPGAESQRESPSTGPWPCPQDPLEASRCVVHGAEFWSEYRINVTEVNPLGASTCLLDVRLQSILRPDPPQGLRVESVPGYPRRLHASWTYPASWRRQPHFLLKFRLQYRPAQHPAWSTVEPIGLEEVITDAVAGLPHAVRVSARDFLDAGTWSAWSPEAWGTPSTGPLQDEIPDWSQGHGQQLEAVVAQEDSPAPARPSLQPDPRPLDHRDPLEQVAVLA
On to B3, for which the Kd in assay [3] came out at 0.29 nM; in assay [2], 1.5 nM.
